Test results as given in patent US20100178296A1.

B1: DX184, rat anti-human inhibitory CD200R monoclonal antibody (antibody, V domains shown)
VL: DIVMTQSPTFMSISVGDRVTMSCKASQNVGSNVDWYQQKTGQSPKLLIYKASNRYTGVPDRFTGSGSGTGFTFTITNLQAEDLAVYYCMQSLSFPYTSGAGT
VH: QVQLKESGPGLVQPSQTLSLTCTVSGFSLTNNGVSWVRQPPGKGLEWIAAISSGGGTFYNSALKSRLSISRDTSKSQVFLKMNSLQTEDTAIYFCARDGDWDWYFDFWGPGTMVTVSS
B2: DX185, rat anti-human inhibitory CD200R monoclonal antibody (antibody, V domains shown)
VH: EIQLQESGPGLVKPSQSFSLTCSVTGYTITSGYDWSWIRKFPGNRMEWMGYINYSGSTVYNPSLRSRFSITRDTSKNQFFLQLNSVASEDTATYYCAKFEASNTYLYDWYFDFWGPGTMVTVSS
VL: DVQMTQSPSYLAASPGESVSISCKAGKNINTNLAWYQAKPGKTNKVLIHSGSTLQSGTPSRFSGSGFGTDFTLTIRSLEPEDFAVYYCQQHNEFPLTFGSGTKLEIKR
B3: DX178, rat anti-human inhibitory CD200R monoclonal antibody (antibody, V domains shown)
VH: EIQLQESGPGLVKPSQSLSLTCSVTGFTITSGYDWSWIRKFPGNKMEWMGYIGFSGSTVYNPSLNSRISITRDTAKNQFFLQLNSVTTEDTATYHCAKSFVQNTFIYDWFFDFWGPGTMVTVSS
VL: DVRMTQSPSNLAASPGESVSINCKASKNISKYLAWYQQKPGKANRLLICSGSTLQSGTPSRFSGSGFGTDFTLTIRNLEPEDFGLYYCQQHNEFPLTFGSGTKLEIKR
B4: DX182, rat anti-human inhibitory CD200R monoclonal antibody (antibody, V domains shown)
VL: EVQMTQSPSTLTASPGESVSINCKASKNIRSYLAWYQQKPGKPNKLLIYSGSTLHSGTPSRFSGSGFGTDFTLTIRNLEPEDFGLYYCQQHHEYPLTFGSGTKLEIKR
VH: EIQLQESGPGLVKPSQSLSLTCSVTGYTITSGYDWSWIRKFPGNKMEWMGYINYGGSTNYKPSLGSRISITRDTSKNQFFLQLNSVSPEDTATYYCAKYNEYKSYIYDWYFDFWGPGTMVTVSS

Assays:
[1] = molecular target: fusion protein of the extracellular domain of the human inhibitory receptor CD200R fused to the Fc portion of human IgG1 (human) (UniProt Q8TD46); test: KinExA, human CD200R-Ig in solution and on the particles
fusion protein of the extracellular domain of the human inhibitory receptor CD200R fused to the Fc portion of human IgG1 (human), sequence (Q8TD46 other isoform, or with tags, fused parts or gaps limits assumed, form in doubt): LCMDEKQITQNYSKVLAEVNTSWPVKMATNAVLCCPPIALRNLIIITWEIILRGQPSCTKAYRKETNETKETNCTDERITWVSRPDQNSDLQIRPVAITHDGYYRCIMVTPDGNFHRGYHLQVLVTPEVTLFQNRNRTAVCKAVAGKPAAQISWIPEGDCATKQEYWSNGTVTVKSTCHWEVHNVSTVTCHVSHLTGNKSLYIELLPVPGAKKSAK

[2] = molecular target: fusion protein of the extracellular domain of the human inhibitory receptor CD200R fused to the Fc portion of human IgG1 (human) (UniProt Q8TD46); test: SPR (BIAcore 3000), fusion protein captured by anti-human Fc, antibody at 133 and 13.3 nM, bivalent analyte model
[3] = molecular target: human CD200R, full length, expressed on murine mast cells (DT762) (human) (UniProt Q8TD46)
human CD200R, full length, expressed on murine mast cells (DT762) (human), sequence (Q8TD46 other isoform, or with tags, fused parts or gaps limits assumed, form in doubt): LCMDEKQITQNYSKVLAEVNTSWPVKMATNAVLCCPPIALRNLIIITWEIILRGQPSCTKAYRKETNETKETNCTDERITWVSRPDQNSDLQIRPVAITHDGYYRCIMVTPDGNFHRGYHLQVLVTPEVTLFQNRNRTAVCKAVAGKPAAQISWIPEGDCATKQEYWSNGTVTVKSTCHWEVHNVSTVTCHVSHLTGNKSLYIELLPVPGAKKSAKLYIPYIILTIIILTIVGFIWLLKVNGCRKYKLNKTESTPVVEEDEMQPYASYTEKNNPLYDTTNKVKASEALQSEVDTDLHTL

[4] = molecular target: fusion protein of the extracellular domain of the human inhibitory receptor CD200R fused to the Fc portion of human IgG1 (human) (UniProt Q8TD46); test: SPR (BIAcore 3000), fusion protein captured by anti-human Fc, antibody 0.82 to 600 nM, bivalent analyte model

Binder	Kd [1] [nM]	Kd [2] [nM]	IC50 (read off the curve) [3] [µg/mL]	Kd [4] [nM]
B1	0.026	1.93	–	–
B2	0.126	0.202	–	–
B3	0.628	1.62	–	–
B4	0.056	0.024	0.2	0.76
